Results published in PMC7003067.
Residue numbers refer to the chain shown, from its start. Names and notes keep the numbering of the source.

B1: GLT8D1 (Homo sapiens) (protein)
chain: MSFRKVNIIILVLAVALFLLVLHHNFLSLSSLLRNEVTDSGIVGPQPIDFVPNALRHAVDGRQEEIPVVIAASEDRLGGAIAAINSIQHNTRSNVIFYIVTLNNTADHLRSWLNSDSLKSIRYKIVNFDPKLLEGKVKEDPDQGESMKPLTFARFYLPILVPSAKKAIYMDDDVIVQGDILALYNTALKPGHAAAFSEDCDSASTKVVIRGAGNQYNYIGYLDYKKERIRKLSMKASTCSFNPGVFVANLTEWKRQNITNQLEKWMKLNVEEGLYSRTLAGSITTPPLLIVFYQQHSTIDPMWNVRHLGSSAGKRYSPQFVKAAKLLHWNGHLKPWGRTASYTDVWEKWYIPDPTGKFNLIRRYTEISNIK
B2: GLT8D1 (Homo sapiens; R92C) (protein)
chain: B1 chain with R92C
B3: GLT8D1 (Homo sapiens; G78W) (protein)
chain: B1 chain with G78W

Substrate: O=c1ccn([C@@H]2O[C@H](COP(=O)(O)OP(=O)(O)O[C@H]3O[C@H](CO)[C@H](O)[C@H](O)[C@H]3O)[C@@H](O)[C@H]2O)c(=O)[nH]1
Test: UDP-Glo glycosyltransferase assay
Assay type: biochemical, Homo sapiens
Settings: no acceptor, 50 mM Tris pH 7.5, 5 mM MnCl2, 37 °C, 60 min

In order of falling Km:
1. B1  3500 µM
2. B2  2500 µM
3. B3  2300 µM
